Source: PMC5779621

B1: recombinant human ST3Gal-IV (α2,3-sialyltransferase) (Homo sapiens) (protein)
chain: REDRYIELFYFPIPEKKEPCLQGEAESKASKLFGNYSRDQPIFLRLEDYFWVKTPSAYELPYGTKGSEDLLLRVLAITSSSIPKNIQSLRCRRCVVVGNGHRLRNSSLGDAINKYDVVIRLNNAPVAGYEGDVGSKTTMRLFYPESAHFDPKVENNPDTLLVLVAFKAMDFHWIETILSDKKRVRKGFWKQPPLIWDVNPKQIRILNPFFMEIAADKLLSLPMQQPRKIKQKPTTGLLAITLALHLCDLVHIAGFGYPDAYNKKQTIHYYEQITLKSMAGSGHNVSQEALAIKRMLEMGAIKNLTSF

Key:
[1] = target: Fibroblast growth factor receptor (human (endogenous in MCF-7)) (UniProt P11362); experiment: Western blot of cell lysates for the receptor dimer
[2] = substrate: CC(=O)N[C@H]1[C@H]([C@H](O)[C@H](O)CO)O[C@](OP(=O)(O)OC[C@H]2O[C@@H](n3ccc(N)nc3=O)[C@H](O)[C@@H]2O)(C(=O)O)C[C@@H]1O; experiment: purified protein; settings: donor substrate; acceptor type II LacNAc

| Molecule | stoichiometry N [1] | Km [2] |
| --- | --- | --- |
| Fibroblast growth factor receptor (from UniProt P11362 22-822) | 2 |  |
| B1 |  | 0.0734 mM |
